Laboratory results as given in patent US20200263187A1, “A METHOD FOR EXPRESSION OF A PROKARYOTIC MEMBRANE PROTEIN IN AN EUKARYOTIC ORGANISM, PRODUCTS AND USES THEREOF” (Universidade Do Minho, priority 2017, published 2020).
Where two headings read alike, the source gives them in different places.

What was measured:
[1] = tested on: S. cerevisiae W303-1A jen1Δ ady2Δ cells; assay type: cell-based; settings: for Kd (diffusion component) for lactate, non-mediated transport: cells grown in YNB lactic acid
Protocol: FIG. 4. Initial uptake rates of the radiolabelled 14C -Lactic acid at different concentrations. S. cerevisaie W303-1A jen1 Δady2Δ cells containing the plasmid pNJ-LctP-CJ-GFP and pNJ-LIdp-CJ-GFP were grown in YNB Lactic acid medium at pH 5.5 and 30° C., until mid-exponential growth phase.
In an embodiment, to confirm the successful heterologous expression of transporters in this system several studies were carried out as described in (Soares-Silva, et al. 2015): radiolabelled lactate uptake assays, growth assays in solid minimal medium with carboxylates or sugars as sole carbon source and fluorescence microscopy to detect the location of GFP fusion proteins.
The growth of the S. cerevisiae ady2Δjen1Δ strain expressing the NJ-LldP-CJ-GFP protein and control strains were evaluated in YNB media (supplemented according to the required auxotrophies) containing lactic acid (0.5%) pH 5.5 at 18° C. The S. cerevisiae ady2Δjen1Δ strains expressing the native LIdP (pLIdP), the empty vector (p416GPD) and the ScJen1p (pDS1) were used as controls.
As a control the IctP gene was cloned in the p416GPD vector. For this construct the IctP gene was amplified from S. aureus genomic DNA using the primers LcFWD and LcREV (Table 1) and inserted and ligated in the p416GPD vector using the restriction enzymes BamHI and EcoRI. […] The growth of S. cerevisiae strains was tested in YNB media (supplemented according to the required auxotrophies) containing lactic acid 0.5% (pH 5.5).

[2] = tested on: S. cerevisiae W303-1A lactic acid-grown cells; settings: cited from earlier work
[3] = tested on: hxt null mutant EBY.4000 strain; settings: HXT1 expressed in EBY.4000, Özcan and Johnston 1999, cited from earlier work

B1: ScJen1: S. cerevisiae lactate transporter Jen1, positive control (protein, UniProt P36035 2-616, looked up)
Carboxylic acid transporter …: SSSITDEKISGEQQQPAGRKLYYNTSTFAEPPLVDGEGNPINYEPEVYNPDHEKLYHNPSLPAQSIQDTRDDELLERVYSQDQGVEYEEDEEDKPNLSAASIKSYALTRFTSLLHIHEFSWENVNPIPELRKMTWQNWNYFFMGYFAWLSAAWAFFCVSVSVAPLAELYDRPTKDITWGLGLVLFVRSAGAVIFGLWTDKSSRKWPYITCLFLFVIAQLCTPWCDTYEKFLGVRWITGIAMGGIYGCASATAIEDAPVKARSFLSGLFFSAYAMGFIFAIIFYRAFGYFRDDGWKILFWFSIFLPILLIFWRLLWPETKYFTKVLKARKLILSDAVKANGGEPLPKANFKQKMVSMKRTVQKYWLLFAYLVVLLVGPNYLTHASQDLLPTMLRAQLGLSKDAVTVIVVVTNIGAICGGMIFGQFMEVTGRRLGLLIACTMGGCFTYPAFMLRSEKAILGAGFMLYFCVFGVWGILPIHLAELAPADARALVAGLSYQLGNLASAAASTIETQLADRYPLERDASGAVIKEDYAKVMAILTGSVFIFTFACVFVGHEKFHRDLSSPVMKKYINQVEEYEADGLSISDIVEQKTECASVKMIDSNVSKTYEEHIETV
modifications: GFP fusion
notes: S. cerevisiae lactate transporter Jen1, positive control
- Vmax for lactic acid uptake ([1]; 14C-lactic acid uptake, pH 5.0, cells grown in YNB lactic acid pH 5.5, 30° C., mid-exponential phase): 0.23±0.01 nmol s-1 mg-1 dry wt
- Km ([1]; 14C-lactic acid uptake, pH 5.0, cells grown in YNB lactic acid pH 5.5, 30° C., mid-exponential phase, read-out: Km for lactic acid uptake): 270 ± 40 µM
- Vmax for lactic acid uptake (unit not given) ([1]; positive control in FIG. 4 legend, 14C-lactic acid): 0.23
- Km ([1]; positive control in FIG. 4 legend, 14C-lactic acid, read-out: Km value for lactic acid uptake (unit inferred)): 270 µM
- Km ([2]; Casal 1999, Paiva 2013, read-out: Km for lactate uptake): 290 µM
- Vmax for lactate uptake ([2]; Casal 1999, Paiva 2013): 0.40 nmol of lactic acid s1 mg of dry weight1

B2: HXT1: S. cerevisiae low affinity glucose transporter, positive control (protein, UniProt P32465 1-570, looked up)
Low-affinity glucose …: MNSTPDLISPQKSNSSNSYELESGRSKAMNTPEGKNESFHDNLSESQVQPAVAPPNTGKGVYVTVSICCVMVAFGGFIFGWDTGTISGFVAQTDFLRRFGMKHHDGSHYLSKVRTGLIVSIFNIGCAIGGIVLAKLGDMYGRRIGLIVVVVIYTIGIIIQIASINKWYQYFIGRIISGLGVGGITVLSPMLISEVAPSEMRGTLVSCYQVMITLGIFLGYCTNFGTKNYSNSVQWRVPLGLCFAWALFMIGGMMFVPESPRYLVEAGRIDEARASLAKVNKCPPDHPYIQYELETIEASVEEMRAAGTASWGELFTGKPAMFQRTMMGIMIQSLQQLTGDNYFFYYGTIVFQAVGLSDSFETSIVFGVVNFFSTCCSLYTVDRFGRRNCLMWGAVGMVCCYVVYASVGVTRLWPNGQDQPSSKGAGNCMIVFACFYIFCFATTWAPIAYVVISECFPLRVKSKCMSIASAANWIWGFLISFFTPFITGAINFYYGYVFMGCMVFAYFYVFFFVPETKGLSLEEVNDMYAEGVLPWKSASWVPVSKRGADYNADDLMHDDQPFYKSLFSRK
- Glucose concentration at which growth is restored [3]: above 1%
- Km ([3]; read-out: Km of low-affinity glucose transport): 100000 µM

B3: pLIdP: Native E. coli LldP lactate permease cloned in p416GPD, control without eukaryotic termini (protein, UniProt P33231 1-551, looked up)
L-lactate permease: MNLWQQNYDPAGNIWLSSLIASLPILFFFFALIKLKLKGYVAASWTVAIALAVALLFYKMPVANALASVVYGFFYGLWPIAWIIIAAVFVYKISVKTGQFDIIRSSILSITPDQRLQMLIVGFCFGAFLEGAAGFGAPVAITAALLVGLGFKPLYAAGLCLIVNTAPVAFGAMGIPILVAGQVTGIDSFEIGQMVGRQLPFMTIIVLFWIMAIMDGWRGIKETWPAVVVAGGSFAIAQYLSSNFIGPELPDIISSLVSLLCLTLFLKRWQPVRVFRFGDLGASQVDMTLAHTGYTAGQVLRAWTPFLFLTATVTLWSIPPFKALFASGGALYEWVINIPVPYLDKLVARMPPVVSEATAYAAVFKFDWFSATGTAILFAALLSIVWLKMKPSDAISTFGSTLKELALPIYSIGMVLAFAFISNYSGLSSTLALALAHTGHAFTFFSPFLGWLGVFLTGSDTSSNALFAALQATAAQQIGVSDLLLVAANTTGGVTGKMISPQSIAIACAAVGLVGKESDLFRFTVKHSLIFTCIVGVITTLQAYVLTWMIP
- Kd (diffusion component) for lactate, non-mediated transport ([1]; 14C-lactic acid uptake): 47 ± 2.5 µM
- Kd (diffusion component) for lactate, non-mediated transport ([1]; 14C-lactic acid uptake, listed as Lldp): 43 ± 2 µM
- Transport mechanism for labelled lactic acid ([1]; lactic acid uptake, pH 5.0): non-mediated transport mechanism
